The values that follow come from patent EP2718312B1.

This assay addresses hCXCR1 (human) (UniProt P25024). Put plainly: cell-based or functional assay.

hCXCR1 (human), sequence (P25024 whole entry): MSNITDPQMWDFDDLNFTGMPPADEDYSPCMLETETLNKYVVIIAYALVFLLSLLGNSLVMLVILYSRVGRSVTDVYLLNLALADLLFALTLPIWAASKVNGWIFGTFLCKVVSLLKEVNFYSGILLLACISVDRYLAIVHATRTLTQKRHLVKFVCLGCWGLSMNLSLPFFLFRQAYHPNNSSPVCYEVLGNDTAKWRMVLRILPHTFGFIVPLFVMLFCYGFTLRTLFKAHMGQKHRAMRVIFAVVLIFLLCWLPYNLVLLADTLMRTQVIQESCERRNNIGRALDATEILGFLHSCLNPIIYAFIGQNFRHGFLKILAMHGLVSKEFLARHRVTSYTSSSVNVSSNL

With “biotinIL-8 (6-78) (from UniProt P10145 28-99) (ligand)”, the EC50, agonist activity in an Aequorin assay came to 6.1 nM.
In turn, “recombinant native IL-8 (from UniProt P10145 28-99)” yielded an EC50, Aequorin assay of 4.2 nM.
